Experimental data: patent publication US20250152743A1, “SYNPOPTOSIS CIRCUITS FOR PROGRAMMABLE CELL DEATH CONTROL” (California Institute of Technology, priority 2023, published 2025)

Target: Caspase-3-L-tev-S (Homo sapiens (Human)) (UniProt P42574)
Experiment: cell-based or functional assay

With membrane-bound TEVP (CAAX) (enzyme) the cell death of polytransfected HEK293 cells, Annexin V staining and flow cytometry was 40 % cell death.
